The data set deals with McbR (Escherichia coli (avian pathogenic, strain APECX40)) (UniProt P76114). The data set can be described thus: EMSA. (In general: A gel shift assay detects complexes by their altered migration in electrophoresis.)
Chain of McbR (Escherichia coli (avian pathogenic, strain APECX40)) (P76114 whole entry): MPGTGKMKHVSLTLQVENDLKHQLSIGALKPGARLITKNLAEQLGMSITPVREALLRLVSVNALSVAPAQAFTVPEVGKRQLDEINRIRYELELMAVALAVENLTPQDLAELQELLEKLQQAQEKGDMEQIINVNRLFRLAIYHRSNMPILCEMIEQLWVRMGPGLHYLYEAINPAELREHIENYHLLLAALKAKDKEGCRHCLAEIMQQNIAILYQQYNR

Regarding “ATGTTCGTGAATTTACAGGCGTTAGATTTACATACATTTGTGAATGTATGTACCATAGCACGACGATAATATAAACGCAGCAATGGGTTTATTAACTTTTGACCATTGACCAATTTGAAATCGGACACTCGAGGTTTACAT (double strand) [p-acrAB]”, the binding entry is reported as “binds”.

For the origin of these results see paper PMC7705038.
